For this experiment, the target named is Fc gamma receptor I (human) (UniProt P12314). As to the kind of experiment: AlphaScreen or HTRF; AlphaLISA human FCGR binding kit (PerkinElmer), competition: donor and acceptor beads coated with unmodified IgG and FcγR-I; serial dilutions of SPGR-engineered IgG in 1X HiBlock buffer (1 mg/ml to 0.1 μg/ml); 25 °C, 90 min; signal at 615 nm. (In general: Alpha assays give light when donor and acceptor beads are brought close together.)
Chain of UniProt P12314 (P12314 16-292): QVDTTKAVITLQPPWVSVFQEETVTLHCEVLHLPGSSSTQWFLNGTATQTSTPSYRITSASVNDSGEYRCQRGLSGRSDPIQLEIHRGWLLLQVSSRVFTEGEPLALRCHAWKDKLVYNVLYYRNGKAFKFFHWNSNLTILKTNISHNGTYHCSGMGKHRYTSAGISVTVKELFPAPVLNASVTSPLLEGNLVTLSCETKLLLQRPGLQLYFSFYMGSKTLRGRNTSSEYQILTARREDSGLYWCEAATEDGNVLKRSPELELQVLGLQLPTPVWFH
“SPGR-engineered human serum IgG, sample 1, (F)M3 glycans (terminating with mannose) (antibody)” displayed a signal reduction at 0.1 μg/ml of 60%.
In turn, “SPGR-engineered human serum IgG, sample 2, bi-antennary (F)A2 glycans (terminating with GlcNAc) (antibody)” displayed a signal reduction at 0.1 μg/ml of 60%.
The same measure for “SPGR-engineered human serum IgG, sample 3, bi-antennary glycans with terminal galactose (antibody)”: 60%.
“SPGR-engineered human serum IgG, sample 4, bi-antennary sialylated glycans (antibody)”: the signal reduction at 0.1 μg/ml amounted to 60%.
Then “SPGR-engineered human serum IgG, sample 5, mono-antennary glycans terminating with GlcNAc (antibody)”, with 60%.
The substance “SPGR-engineered human serum IgG, sample 6, mono-antennary glycans (after GnT-I and GalT) (antibody)” yielded a signal reduction at 0.1 μg/ml of 60%.
“SPGR-engineered human serum IgG, sample 7, mono-antennary glycans (after GnT-I, GalT and SialylT) (antibody)” had a signal reduction at 0.1 μg/ml of 60%.
The same measure for “SPGR-engineered human serum IgG, sample 8, bisecting glycans terminating with GlcNAc (antibody)”: 60%; for “SPGR-engineered human serum IgG, sample 9, bisecting glycans (after GnT-III and GalT) (antibody)”: 60%; for “SPGR-engineered human serum IgG, sample 10, bisecting sialylated glycans (FA2BG2S2 route) (antibody)”: 60%.

The values are drawn from article PMC8990068.
